7 molecules from patent US20140105889A1 (published 2014) can be followed below.

Holding throughout (assay): SPR (Biacore), FcγR over captured antibody; amount bound relative to IL6R-BF648/IL6R-L x100
One assay deals with T1, human FcγRIIa type R (human, UniProt P12318 36-217).
T1 construct: also called FcγRIIaR; FcγRIIa(R)
T1 chain: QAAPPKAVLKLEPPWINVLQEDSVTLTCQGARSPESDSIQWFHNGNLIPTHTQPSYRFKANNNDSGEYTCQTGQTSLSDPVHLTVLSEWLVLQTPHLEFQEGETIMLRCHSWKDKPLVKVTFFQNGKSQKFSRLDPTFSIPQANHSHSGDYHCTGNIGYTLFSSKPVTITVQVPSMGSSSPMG

For another assay, the target named is T2, human FcγRIIIa type V (human, UniProt P08637 17-208, limits assumed).
T2 construct: also called FcγRIIIaV; FcγRIIIa(V)

In the next assay the target is T3, human FcγRIIb (human, UniProt P31994 43-217).
T3 construct: also called FcγIIB
T3 sequence: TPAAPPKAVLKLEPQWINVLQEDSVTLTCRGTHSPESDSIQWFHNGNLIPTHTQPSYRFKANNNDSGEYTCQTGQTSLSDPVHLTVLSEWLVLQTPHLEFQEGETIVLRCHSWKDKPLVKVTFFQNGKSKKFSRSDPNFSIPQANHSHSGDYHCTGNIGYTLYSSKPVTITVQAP

The next assay has as its target T4, human FcγRIIa type H (human, UniProt P12318 36-217).
T4 construct: Whole entry named for FcγRIIa allotype H131 (AAH20823.1); also called FcγRIIaH; FcγRIIa(H)
T4 sequence: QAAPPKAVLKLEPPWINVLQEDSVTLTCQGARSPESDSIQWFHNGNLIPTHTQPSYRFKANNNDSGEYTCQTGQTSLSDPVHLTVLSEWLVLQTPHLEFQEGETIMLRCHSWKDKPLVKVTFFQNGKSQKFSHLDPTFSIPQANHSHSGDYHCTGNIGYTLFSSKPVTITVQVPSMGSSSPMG

The target of the next assay is T5, human FcγRIa (human, UniProt P12314 16-292, limits assumed).
T5 construct: also called CD64
T5 sequence (P12314 16-292 limits assumed): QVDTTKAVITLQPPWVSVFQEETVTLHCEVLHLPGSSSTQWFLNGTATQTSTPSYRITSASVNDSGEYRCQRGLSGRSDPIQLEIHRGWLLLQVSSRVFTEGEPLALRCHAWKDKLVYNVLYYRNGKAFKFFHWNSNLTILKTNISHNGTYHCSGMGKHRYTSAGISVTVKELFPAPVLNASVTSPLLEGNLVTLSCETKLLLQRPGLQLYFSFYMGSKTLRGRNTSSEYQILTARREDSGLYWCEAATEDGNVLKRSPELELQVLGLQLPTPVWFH

T2 sequence (P08637 other isoform, or with tags, fused parts or gaps limits assumed): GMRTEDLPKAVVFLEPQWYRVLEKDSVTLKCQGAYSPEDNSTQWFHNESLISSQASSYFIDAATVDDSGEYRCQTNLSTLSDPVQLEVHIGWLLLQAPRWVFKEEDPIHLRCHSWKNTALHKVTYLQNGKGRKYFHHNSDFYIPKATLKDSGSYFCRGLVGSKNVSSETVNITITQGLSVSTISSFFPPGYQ

B1: IL6R-BP100/IL6R-L (antibody, human IgG1)
heavy: QVQLQESGPGLVKPSETLSLTCAVSGHSISHDHAWSWVRQPPGEGLEWIGFISYSGITNYNPSLQGRVTISRDNSKNTLYLQMNSLRAEDTAVYYCARSLARTTAMDYWGEGTLVTVSSASTKGPSVFPLAPSSKSTSGGTAALGCLVKDYFPEPVTVSWNSGALTSGVHTFPAVLQSSGLYSLSSVVTVPSSSLGTQTYICNVNHKPSNTKVDKKVEPKSCDKTHTCPPCPAPELLGGDSVFLFPPKPKDTLMISRTPEVTCVVVDVAHEDPEVKFNWYVDGVEVHNAKTKPREEQYNSTYRVVSVLTVLHQDWLNGKEYKCKVSNKALPAPIEKTISKAKGQPREPQVYTLPPSRDELTKNQVSLTCLVKGFYPSDIAVEWESNGQPENNYKTTPPVLDSDGSFFLYSKLTVDKSRWQQGNVFSCSVMHEALHNHYTQESLSLSP
light: DIQMTQSPSSLSASVGDRVTITCRASQDISSYLNWYQQKPGKAPKLLIYYTSRLHSGVPSRFSGSGSGTDFTFTISSLQPEDIATYYCQQGNTLPYTFGQGTKVEIK
notes: copies: 2 + 2
Regarding B1, the relative binding was 197 relative value (IL6R-BF648/IL6R-L = 100) with human FcγRIIa type R; 138 relative value (IL6R-BF648/IL6R-L = 100) in the assay with human FcγRIIIa type V; 110 relative value (IL6R-BF648/IL6R-L = 100) in the assay with human FcγRIIb; 128 relative value (IL6R-BF648/IL6R-L = 100) with human FcγRIIa type H; 121 relative value (IL6R-BF648/IL6R-L = 100) with human FcγRIa.

B2: IL6R-BP119/IL6R-L (antibody, human IgG1)
heavy: QVQLQESGPGLVKPSETLSLTCAVSGHSISHDHAWSWVRQPPGEGLEWIGFISYSGITNYNPSLQGRVTISRDNSKNTLYLQMNSLRAEDTAVYYCARSLARTTAMDYWGEGTLVTVSSASTKGPSVFPLAPSSKSTSGGTAALGCLVKDYFPEPVTVSWNSGALTSGVHTFPAVLQSSGLYSLSSVVTVPSSSLGTQTYICNVNHKPSNTKVDKKVEPKSCDKTHTCPPCPAPELLGGDSVFLFPPKPKDTLMISRTPEVTCVVVDVSHEDPEVKFNWYVDGVEVHNAKTKPREEQYNSTYRVVSVLTVLHQDWLNGKEYKCKVSNMALPAPIEKTISKAKGQPREPQVYTLPPSRDELTKNQVSLTCLVKGFYPSDIAVEWESNGQPENNYKTTPPVLDSDGSFFLYSKLTVDKSRWQQGNVFSCSVMHEALHNHYTQESLSLSP
light: DIQMTQSPSSLSASVGDRVTITCRASQDISSYLNWYQQKPGKAPKLLIYYTSRLHSGVPSRFSGSGSGTDFTFTISSLQPEDIATYYCQQGNTLPYTFGQGTKVEIK
notes: copies: 2 + 2
Turning to B2, the relative binding with human FcγRIIa type R was 181 relative value (IL6R-BF648/IL6R-L = 100); with human FcγRIIIa type V, 145 relative value (IL6R-BF648/IL6R-L = 100); with human FcγRIIb it was 110 relative value (IL6R-BF648/IL6R-L = 100); in the assay with human FcγRIIa type H, 133 relative value (IL6R-BF648/IL6R-L = 100); with human FcγRIa, 117 relative value (IL6R-BF648/IL6R-L = 100).

B3: IL6R-BP110/IL6R-L (antibody, human IgG1)
heavy: QVQLQESGPGLVKPSETLSLTCAVSGHSISHDHAWSWVRQPPGEGLEWIGFISYSGITNYNPSLQGRVTISRDNSKNTLYLQMNSLRAEDTAVYYCARSLARTTAMDYWGEGTLVTVSSASTKGPSVFPLAPSSKSTSGGTAALGCLVKDYFPEPVTVSWNSGALTSGVHTFPAVLQSSGLYSLSSVVTVPSSSLGTQTYICNVNHKPSNTKVDKKVEPKSCDKTHTCPPCPAPELLGGDSVFLFPPKPKDTLMISRTPEVTCVVVDVSNEDPEVKFNWYVDGVEVHNAKTKPREEQYNSTYRVVSVLTVLHQDWLNGKEYKCKVSNKALPAPIEKTISKAKGQPREPQVYTLPPSRDELTKNQVSLTCLVKGFYPSDIAVEWESNGQPENNYKTTPPVLDSDGSFFLYSKLTVDKSRWQQGNVFSCSVMHEALHNHYTQESLSLSP
light: DIQMTQSPSSLSASVGDRVTITCRASQDISSYLNWYQQKPGKAPKLLIYYTSRLHSGVPSRFSGSGSGTDFTFTISSLQPEDIATYYCQQGNTLPYTFGQGTKVEIK
notes: copies: 2 + 2
As to B3, the relative binding in the assay with human FcγRIIa type R is 128 relative value (IL6R-BF648/IL6R-L = 100); with human FcγRIIIa type V, 127 relative value (IL6R-BF648/IL6R-L = 100); with human FcγRIIb, 101 relative value (IL6R-BF648/IL6R-L = 100); with human FcγRIIa type H, 127 relative value (IL6R-BF648/IL6R-L = 100); with human FcγRIa, 105 relative value (IL6R-BF648/IL6R-L = 100).

B4: IL6R-BP116/IL6R-L (antibody, human IgG1)
heavy: QVQLQESGPGLVKPSETLSLTCAVSGHSISHDHAWSWVRQPPGEGLEWIGFISYSGITNYNPSLQGRVTISRDNSKNTLYLQMNSLRAEDTAVYYCARSLARTTAMDYWGEGTLVTVSSASTKGPSVFPLAPSSKSTSGGTAALGCLVKDYFPEPVTVSWNSGALTSGVHTFPAVLQSSGLYSLSSVVTVPSSSLGTQTYICNVNHKPSNTKVDKKVEPKSCDKTHTCPPCPAPELLGGDSVFLFPPKPKDTLMISRTPEVTCVVVDVSHEDPEVKFNWYVDGVEVHNAKTKPREEQYNSTYRVVSVLTVLHQDWLNGKEYKCKVSNTALPAPIEKTISKAKGQPREPQVYTLPPSRDELTKNQVSLTCLVKGFYPSDIAVEWESNGQPENNYKTTPPVLDSDGSFFLYSKLTVDKSRWQQGNVFSCSVMHEALHNHYTQESLSLSP
light: DIQMTQSPSSLSASVGDRVTITCRASQDISSYLNWYQQKPGKAPKLLIYYTSRLHSGVPSRFSGSGSGTDFTFTISSLQPEDIATYYCQQGNTLPYTFGQGTKVEIK
notes: copies: 2 + 2
B4: the relative binding in the assay with human FcγRIIa type R is 126 relative value (IL6R-BF648/IL6R-L = 100); with human FcγRIIIa type V, 114 relative value (IL6R-BF648/IL6R-L = 100); with human FcγRIIb it was 108 relative value (IL6R-BF648/IL6R-L = 100); with human FcγRIIa type H, 110 relative value (IL6R-BF648/IL6R-L = 100); with human FcγRIa it was 110 relative value (IL6R-BF648/IL6R-L = 100).

B5: IL6R-BP118/IL6R-L (antibody, human IgG1)
heavy: QVQLQESGPGLVKPSETLSLTCAVSGHSISHDHAWSWVRQPPGEGLEWIGFISYSGITNYNPSLQGRVTISRDNSKNTLYLQMNSLRAEDTAVYYCARSLARTTAMDYWGEGTLVTVSSASTKGPSVFPLAPSSKSTSGGTAALGCLVKDYFPEPVTVSWNSGALTSGVHTFPAVLQSSGLYSLSSVVTVPSSSLGTQTYICNVNHKPSNTKVDKKVEPKSCDKTHTCPPCPAPELLGGDSVFLFPPKPKDTLMISRTPEVTCVVVDVSHEDPEVKFNWYVDGVEVHNAKTKPREEQYNSTYRVVSVLTVLHQDWLNGKEYKCKVSNSALPAPIEKTISKAKGQPREPQVYTLPPSRDELTKNQVSLTCLVKGFYPSDIAVEWESNGQPENNYKTTPPVLDSDGSFFLYSKLTVDKSRWQQGNVFSCSVMHEALHNHYTQESLSLSP
light: DIQMTQSPSSLSASVGDRVTITCRASQDISSYLNWYQQKPGKAPKLLIYYTSRLHSGVPSRFSGSGSGTDFTFTISSLQPEDIATYYCQQGNTLPYTFGQGTKVEIK
notes: copies: 2 + 2
As for B5, the relative binding was 132 relative value (IL6R-BF648/IL6R-L = 100) with human FcγRIIa type R; 144 relative value (IL6R-BF648/IL6R-L = 100) with human FcγRIIIa type V; 104 relative value (IL6R-BF648/IL6R-L = 100) with human FcγRIIb; 128 relative value (IL6R-BF648/IL6R-L = 100) with human FcγRIIa type H; 101 relative value (IL6R-BF648/IL6R-L = 100) with human FcγRIa.

B6: IL6R-BP103/IL6R-L (antibody, human IgG1)
heavy: QVQLQESGPGLVKPSETLSLTCAVSGHSISHDHAWSWVRQPPGEGLEWIGFISYSGITNYNPSLQGRVTISRDNSKNTLYLQMNSLRAEDTAVYYCARSLARTTAMDYWGEGTLVTVSSASTKGPSVFPLAPSSKSTSGGTAALGCLVKDYFPEPVTVSWNSGALTSGVHTFPAVLQSSGLYSLSSVVTVPSSSLGTQTYICNVNHKPSNTKVDKKVEPKSCDKTHTCPPCPAPELLGGDSVFLFPPKPKDTLMISRTPEVTCVVVDVVHEDPEVKFNWYVDGVEVHNAKTKPREEQYNSTYRVVSVLTVLHQDWLNGKEYKCKVSNKALPAPIEKTISKAKGQPREPQVYTLPPSRDELTKNQVSLTCLVKGFYPSDIAVEWESNGQPENNYKTTPPVLDSDGSFFLYSKLTVDKSRWQQGNVFSCSVMHEALHNHYTQESLSLSP
light: DIQMTQSPSSLSASVGDRVTITCRASQDISSYLNWYQQKPGKAPKLLIYYTSRLHSGVPSRFSGSGSGTDFTFTISSLQPEDIATYYCQQGNTLPYTFGQGTKVEIK
notes: copies: 2 + 2
Take B6: the relative binding was 163 relative value (IL6R-BF648/IL6R-L = 100) in the assay with human FcγRIIa type R; 77 relative value (IL6R-BF648/IL6R-L = 100) in the assay with human FcγRIIIa type V; 107 relative value (IL6R-BF648/IL6R-L = 100) with human FcγRIIb; 69 relative value (IL6R-BF648/IL6R-L = 100) in the assay with human FcγRIIa type H; 56 relative value (IL6R-BF648/IL6R-L = 100) in the assay with human FcγRIa.

B7: IL6R-BP102/IL6R-L (antibody, human IgG1)
heavy: QVQLQESGPGLVKPSETLSLTCAVSGHSISHDHAWSWVRQPPGEGLEWIGFISYSGITNYNPSLQGRVTISRDNSKNTLYLQMNSLRAEDTAVYYCARSLARTTAMDYWGEGTLVTVSSASTKGPSVFPLAPSSKSTSGGTAALGCLVKDYFPEPVTVSWNSGALTSGVHTFPAVLQSSGLYSLSSVVTVPSSSLGTQTYICNVNHKPSNTKVDKKVEPKSCDKTHTCPPCPAPELLGGDSVFLFPPKPKDTLMISRTPEVTCVVVDVQHEDPEVKFNWYVDGVEVHNAKTKPREEQYNSTYRVVSVLTVLHQDWLNGKEYKCKVSNKALPAPIEKTISKAKGQPREPQVYTLPPSRDELTKNQVSLTCLVKGFYPSDIAVEWESNGQPENNYKTTPPVLDSDGSFFLYSKLTVDKSRWQQGNVFSCSVMHEALHNHYTQESLSLSP
light: DIQMTQSPSSLSASVGDRVTITCRASQDISSYLNWYQQKPGKAPKLLIYYTSRLHSGVPSRFSGSGSGTDFTFTISSLQPEDIATYYCQQGNTLPYTFGQGTKVEIK
notes: copies: 2 + 2
For B7, the relative binding was 165 relative value (IL6R-BF648/IL6R-L = 100) with human FcγRIIa type R; 86 relative value (IL6R-BF648/IL6R-L = 100) in the assay with human FcγRIIIa type V; 106 relative value (IL6R-BF648/IL6R-L = 100) with human FcγRIIb; 66 relative value (IL6R-BF648/IL6R-L = 100) with human FcγRIIa type H; 104 relative value (IL6R-BF648/IL6R-L = 100) with human FcγRIa.
